Measurements published in IntAct's records for PubMed 19797078.

B1: Tyrosine-protein phosphatase YVH1 (Saccharomyces cerevisiae), Q02256 (parent)
chain: MAGNANSVDEEVTRILGGIYLGGIRPIIDHRPLGAEFNITHILSVIKFQVIPEYLIRKGYTLKNIPIDDDDVTDVLQYFDETNRFIDQCLFPNEVEYSPRLVDFKKKPQRGAVFAHCQAGLSRSVTFIVAYLMYRYGLSLSMAMHAVKRKKPSVEPNENFMEQLHLFEKMGGDFVDFDNPAYKQWKLKQSIKLDPSGSELVSNSGMFKDSESSQDLDKLTEAEKSKVTAVRCKKCRTKLALSTSFIAHDPPSKESSEGHFIKRAANSHRIIDIQESQANCSHFFIEPLKWMQPELQGKQELEGKFSCPGCSSKVGGYNWKGSRCSCGKWVIPAIHLQTSKVDQFPLQSTALPNMVNFESEKVNR
partner: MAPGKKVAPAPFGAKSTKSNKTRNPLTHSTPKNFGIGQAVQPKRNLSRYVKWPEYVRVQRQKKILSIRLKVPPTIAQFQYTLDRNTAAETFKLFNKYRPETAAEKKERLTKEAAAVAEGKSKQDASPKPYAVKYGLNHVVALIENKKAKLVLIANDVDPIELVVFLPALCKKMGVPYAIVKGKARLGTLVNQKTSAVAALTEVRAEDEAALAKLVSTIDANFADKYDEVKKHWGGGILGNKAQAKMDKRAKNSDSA
B2: Ribosome assembly factor MRT4 (Saccharomyces cerevisiae), P33201 (parent)
chain: MPRSKRSKLVTLAQTDKKGRENKERIFDEVREALDTYRYVWVLHLDDVRTPVLQEIRTSWAGSKLIMGKRKVLQKALGEKREEEYKENLYQLSKLCSGVTGLLFTDEDVNTVKEYFKSYVRSDYSRPNTKAPLTFTIPEGIVYSRGGQIPAEEDVPMIHSLEPTMRNKFEIPTKIKAGKITIDSPYLVCTEGEKLDVRQALILKQFGIAASEFKVKVSAYYDNDSSTVESTNINME
partner: B1 partner

Variants of: B1
Details: with rl8a_yeast RPL8A

Row | Variant | effect of a mutation on the interaction
1 | C117S | decreasing interaction

Variants of: B2
Details: with rl8a_yeast RPL8A

Row | Variant | effect of a mutation on the interaction
2 | G68D | decreasing interaction
